# From US20140072613A1, “Compositions and Methods for Treating Cutaneous Scarring” (priority 2012, published 2014)
# Assays:
# Assay in all cases: biochemical
# Assay type in all cases: biochemical
# [1] = molecular target: 266 human kinases (Homo sapiens, UniProt Q13043); conditions: MST1(h); 100 μM
# Method in brief: (§1)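 Inhibition was judged from reduced transfer of labelled phosphate from ATP to a positively charged substrate, which was captured on a negatively charged membrane and quantified by scintillation counting against a 100% activity control.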
# [2] = molecular target: 266 human kinases (Homo sapiens, UniProt P00519, T315I); conditions: Abl(T315I)(h); 100 μM
# Method in brief: as §1
# [3] = molecular target: T1, 266 human kinases (Homo sapiens, UniProt Q02156); conditions: PKCε(h); 100 μM
# T1 sequence (Q02156 1-737): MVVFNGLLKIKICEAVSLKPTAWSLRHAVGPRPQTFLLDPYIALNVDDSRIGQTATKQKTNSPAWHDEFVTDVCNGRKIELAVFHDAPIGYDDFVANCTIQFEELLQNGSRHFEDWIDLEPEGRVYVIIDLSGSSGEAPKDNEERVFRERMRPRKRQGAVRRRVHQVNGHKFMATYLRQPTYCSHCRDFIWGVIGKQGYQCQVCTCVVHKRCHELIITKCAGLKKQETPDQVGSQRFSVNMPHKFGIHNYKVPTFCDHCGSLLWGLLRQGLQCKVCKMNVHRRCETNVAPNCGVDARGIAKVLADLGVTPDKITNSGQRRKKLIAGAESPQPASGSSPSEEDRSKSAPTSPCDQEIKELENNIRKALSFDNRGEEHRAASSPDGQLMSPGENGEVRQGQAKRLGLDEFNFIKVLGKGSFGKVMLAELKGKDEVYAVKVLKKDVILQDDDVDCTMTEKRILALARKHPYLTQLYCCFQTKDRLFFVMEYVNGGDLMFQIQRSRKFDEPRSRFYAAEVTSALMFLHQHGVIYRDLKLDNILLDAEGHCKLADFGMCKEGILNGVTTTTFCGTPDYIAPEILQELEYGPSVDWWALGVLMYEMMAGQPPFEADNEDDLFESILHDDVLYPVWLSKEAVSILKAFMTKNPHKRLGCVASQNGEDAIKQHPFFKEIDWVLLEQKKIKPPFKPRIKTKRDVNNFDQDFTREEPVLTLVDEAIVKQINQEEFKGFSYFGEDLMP
# Method in brief: as §1
# [4] = molecular target: 266 human kinases (Homo sapiens, UniProt Q14680); conditions: MELK(h); 100 μM
# 266 human kinases (Homo sapiens, UniProt Q14680), sequence (Q14680 whole entry): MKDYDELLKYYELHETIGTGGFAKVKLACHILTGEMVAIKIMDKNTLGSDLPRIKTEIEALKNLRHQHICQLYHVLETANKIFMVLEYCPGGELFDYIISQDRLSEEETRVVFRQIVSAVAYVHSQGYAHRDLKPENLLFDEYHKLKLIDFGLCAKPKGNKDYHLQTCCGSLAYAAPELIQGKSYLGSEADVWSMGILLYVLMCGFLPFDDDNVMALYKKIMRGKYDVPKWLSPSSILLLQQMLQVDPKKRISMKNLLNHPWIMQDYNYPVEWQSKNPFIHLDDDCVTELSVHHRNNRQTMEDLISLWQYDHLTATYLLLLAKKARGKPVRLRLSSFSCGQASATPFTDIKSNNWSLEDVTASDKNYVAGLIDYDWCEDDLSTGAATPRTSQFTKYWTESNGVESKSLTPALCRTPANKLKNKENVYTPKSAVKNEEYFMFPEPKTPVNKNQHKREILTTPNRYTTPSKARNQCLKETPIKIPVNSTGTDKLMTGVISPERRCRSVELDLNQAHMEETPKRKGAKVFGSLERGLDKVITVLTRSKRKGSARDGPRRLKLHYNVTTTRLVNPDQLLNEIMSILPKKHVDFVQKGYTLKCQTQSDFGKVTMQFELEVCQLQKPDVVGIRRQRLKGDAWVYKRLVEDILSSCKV
# Method in brief: as §1
# [5] = molecular target: 266 human kinases (Homo sapiens, UniProt P68400); conditions: CK2(h); 100 μM
# 266 human kinases (Homo sapiens, UniProt P68400), sequence (P68400 whole entry): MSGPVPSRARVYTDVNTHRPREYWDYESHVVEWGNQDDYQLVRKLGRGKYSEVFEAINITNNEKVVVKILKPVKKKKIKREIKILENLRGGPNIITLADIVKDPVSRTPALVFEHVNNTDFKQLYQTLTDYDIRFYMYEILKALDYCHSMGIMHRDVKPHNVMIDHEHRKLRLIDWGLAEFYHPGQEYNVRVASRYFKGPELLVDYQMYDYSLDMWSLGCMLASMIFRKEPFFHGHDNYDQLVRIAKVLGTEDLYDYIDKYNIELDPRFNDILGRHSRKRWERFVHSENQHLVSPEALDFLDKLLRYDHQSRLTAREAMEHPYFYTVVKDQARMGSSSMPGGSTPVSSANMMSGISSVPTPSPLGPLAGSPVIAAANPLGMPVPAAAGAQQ
# Method in brief: as §1
# [6] = molecular target: 266 human kinases (Homo sapiens, UniProt P07948); conditions: Lyn(h); 100 μM
# 266 human kinases (Homo sapiens, UniProt P07948), sequence (P07948 whole entry): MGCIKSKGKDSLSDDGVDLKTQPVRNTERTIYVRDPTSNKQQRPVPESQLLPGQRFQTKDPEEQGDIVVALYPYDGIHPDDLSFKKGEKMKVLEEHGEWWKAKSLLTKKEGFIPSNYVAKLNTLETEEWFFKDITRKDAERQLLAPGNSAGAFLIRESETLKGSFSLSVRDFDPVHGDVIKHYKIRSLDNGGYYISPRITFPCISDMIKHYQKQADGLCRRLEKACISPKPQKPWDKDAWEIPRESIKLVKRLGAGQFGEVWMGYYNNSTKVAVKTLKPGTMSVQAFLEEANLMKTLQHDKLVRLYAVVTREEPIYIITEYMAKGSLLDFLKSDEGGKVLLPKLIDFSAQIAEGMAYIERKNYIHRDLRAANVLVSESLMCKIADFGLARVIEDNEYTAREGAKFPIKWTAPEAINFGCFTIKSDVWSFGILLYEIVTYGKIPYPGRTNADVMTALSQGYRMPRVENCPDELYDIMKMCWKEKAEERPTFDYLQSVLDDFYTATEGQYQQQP
# Method in brief: as §1
# [7] = molecular target: T2, 266 human kinases (Homo sapiens, UniProt P42680); conditions: Tec(h)activated; 100 μM
# T2 sequence (P42680 1-631): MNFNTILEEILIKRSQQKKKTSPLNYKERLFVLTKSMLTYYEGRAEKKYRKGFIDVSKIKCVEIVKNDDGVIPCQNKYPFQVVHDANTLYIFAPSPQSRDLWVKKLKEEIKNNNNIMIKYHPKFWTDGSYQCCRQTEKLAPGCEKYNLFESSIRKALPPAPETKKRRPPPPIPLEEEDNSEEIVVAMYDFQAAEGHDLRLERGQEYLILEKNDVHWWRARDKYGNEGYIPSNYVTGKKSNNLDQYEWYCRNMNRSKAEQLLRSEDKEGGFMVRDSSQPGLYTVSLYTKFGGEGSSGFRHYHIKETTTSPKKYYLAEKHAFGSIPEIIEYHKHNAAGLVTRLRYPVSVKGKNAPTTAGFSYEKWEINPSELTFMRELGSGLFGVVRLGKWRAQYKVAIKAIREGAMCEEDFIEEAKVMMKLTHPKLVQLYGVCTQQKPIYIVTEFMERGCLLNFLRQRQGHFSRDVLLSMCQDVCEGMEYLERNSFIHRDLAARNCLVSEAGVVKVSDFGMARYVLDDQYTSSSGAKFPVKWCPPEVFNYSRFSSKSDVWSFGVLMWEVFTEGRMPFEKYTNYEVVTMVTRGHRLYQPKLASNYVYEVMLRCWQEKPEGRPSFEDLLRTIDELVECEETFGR
# Method in brief: as §1
# [8] = molecular target: 266 human kinases (Homo sapiens, UniProt Q13554); conditions: CaMKIIβ(h); 100 μM
# 266 human kinases (Homo sapiens, UniProt Q13554), sequence (Q13554 whole entry): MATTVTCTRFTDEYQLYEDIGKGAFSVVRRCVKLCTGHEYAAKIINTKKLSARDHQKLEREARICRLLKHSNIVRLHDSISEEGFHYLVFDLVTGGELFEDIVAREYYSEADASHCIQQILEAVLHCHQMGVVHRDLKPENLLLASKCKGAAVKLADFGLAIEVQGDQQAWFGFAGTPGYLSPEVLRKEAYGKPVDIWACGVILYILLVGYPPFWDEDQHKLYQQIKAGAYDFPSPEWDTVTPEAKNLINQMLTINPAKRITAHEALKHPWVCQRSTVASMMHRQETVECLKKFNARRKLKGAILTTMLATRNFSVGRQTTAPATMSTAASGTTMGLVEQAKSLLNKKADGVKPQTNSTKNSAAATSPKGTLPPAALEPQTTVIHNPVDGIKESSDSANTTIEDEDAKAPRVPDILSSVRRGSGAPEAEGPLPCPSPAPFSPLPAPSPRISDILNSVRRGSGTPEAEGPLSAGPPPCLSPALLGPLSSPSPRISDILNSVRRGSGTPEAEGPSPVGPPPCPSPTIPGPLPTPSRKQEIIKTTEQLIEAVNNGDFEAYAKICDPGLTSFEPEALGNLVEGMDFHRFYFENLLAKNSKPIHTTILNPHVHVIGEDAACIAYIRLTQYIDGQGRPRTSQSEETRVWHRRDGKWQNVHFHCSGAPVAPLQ
# Method in brief: as §1
# [9] = molecular target: 266 human kinases (Homo sapiens, UniProt Q15303); conditions: ErbB4(h); 100 μM
# 266 human kinases (Homo sapiens, UniProt Q15303), sequence (Q15303 26-1308): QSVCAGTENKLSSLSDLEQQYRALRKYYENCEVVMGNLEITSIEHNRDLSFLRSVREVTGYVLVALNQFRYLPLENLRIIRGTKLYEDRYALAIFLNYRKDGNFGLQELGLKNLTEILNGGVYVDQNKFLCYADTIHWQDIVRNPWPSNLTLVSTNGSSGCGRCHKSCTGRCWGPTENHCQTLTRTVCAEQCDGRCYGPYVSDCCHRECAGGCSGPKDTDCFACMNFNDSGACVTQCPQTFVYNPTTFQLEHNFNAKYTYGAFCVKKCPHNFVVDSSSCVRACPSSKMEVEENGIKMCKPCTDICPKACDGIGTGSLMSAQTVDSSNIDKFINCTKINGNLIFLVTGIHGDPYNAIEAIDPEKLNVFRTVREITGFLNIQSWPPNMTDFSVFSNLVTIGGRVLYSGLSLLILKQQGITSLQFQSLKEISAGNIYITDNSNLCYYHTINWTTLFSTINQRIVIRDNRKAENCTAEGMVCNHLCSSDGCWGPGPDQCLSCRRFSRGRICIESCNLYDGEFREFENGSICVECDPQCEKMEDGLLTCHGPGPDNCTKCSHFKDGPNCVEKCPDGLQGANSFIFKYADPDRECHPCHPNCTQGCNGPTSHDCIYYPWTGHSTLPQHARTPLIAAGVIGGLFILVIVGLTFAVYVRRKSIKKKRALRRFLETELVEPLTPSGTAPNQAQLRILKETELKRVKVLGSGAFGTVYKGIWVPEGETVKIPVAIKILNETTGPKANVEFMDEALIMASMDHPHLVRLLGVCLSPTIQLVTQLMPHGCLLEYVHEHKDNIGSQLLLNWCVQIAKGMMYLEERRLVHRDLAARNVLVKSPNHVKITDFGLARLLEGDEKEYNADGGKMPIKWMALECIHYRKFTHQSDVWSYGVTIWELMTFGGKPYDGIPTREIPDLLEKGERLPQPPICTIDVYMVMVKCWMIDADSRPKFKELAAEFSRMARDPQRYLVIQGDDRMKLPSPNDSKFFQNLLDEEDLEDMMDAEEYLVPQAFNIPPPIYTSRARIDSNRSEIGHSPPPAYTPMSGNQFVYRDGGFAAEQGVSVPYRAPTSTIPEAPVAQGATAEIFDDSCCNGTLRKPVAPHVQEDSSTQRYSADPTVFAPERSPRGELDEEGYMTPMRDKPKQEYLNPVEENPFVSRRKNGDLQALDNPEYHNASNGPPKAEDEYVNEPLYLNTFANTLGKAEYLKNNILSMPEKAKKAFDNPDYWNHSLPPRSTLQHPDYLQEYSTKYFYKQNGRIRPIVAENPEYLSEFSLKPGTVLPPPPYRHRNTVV
# Method in brief: as §1
# 266 human kinases (Homo sapiens, UniProt Q13043), sequence (Q13043 whole entry): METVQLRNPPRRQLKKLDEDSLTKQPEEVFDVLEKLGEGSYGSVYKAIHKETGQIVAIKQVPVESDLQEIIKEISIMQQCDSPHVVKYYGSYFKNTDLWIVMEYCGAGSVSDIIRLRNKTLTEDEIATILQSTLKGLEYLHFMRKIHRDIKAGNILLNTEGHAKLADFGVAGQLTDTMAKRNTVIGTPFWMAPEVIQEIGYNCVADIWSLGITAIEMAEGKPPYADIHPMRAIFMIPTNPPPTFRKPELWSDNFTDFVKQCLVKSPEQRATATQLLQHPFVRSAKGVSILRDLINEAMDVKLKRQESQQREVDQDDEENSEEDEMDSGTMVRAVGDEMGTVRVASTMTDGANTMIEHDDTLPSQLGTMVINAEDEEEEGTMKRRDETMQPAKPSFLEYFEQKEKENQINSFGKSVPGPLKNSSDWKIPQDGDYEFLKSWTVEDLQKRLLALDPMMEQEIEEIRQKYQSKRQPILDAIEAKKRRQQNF
Sequence,% activity [1] [%],% activity [2] [%],% activity [3] [%],% activity [4] [%],% activity [5] [%],% activity [6] [%],% activity [7] [%],% activity [8] [%],% activity [9] [%]
HRRIKAWLKKIKALARQLGVAA (mammal) [MMI-0500],3,16,23,0,93,31,33,3,2
YARAAARQARAKALNRQLGVA (mammal) [MMI-0200],72,108,98,59,83,98,77,53,82
